This data set deals with T1, COc1cc(CO)ccc1O.
T1 construct: SUMO tag cleaved for crystals; non-covalent FAD
Kind of data set: purified protein. The format is biochemical, Novosphingobium sp. The settings on record: molecular oxygen as acceptor, 35 °C, 50 mM Tris-HCl pH 9.0, 300 mM NaCl.

From article PMC7617285, “Dehydrogenase versus oxidase function: the interplay between substrate binding and flavin microenvironment” (ACS catalysis, 2025) come the findings set out here.

As for “nsVAO (vanillyl-alcohol oxidase from Novosphingobium sp.) (Novosphingobium sp.)”, the Km came to 207 ± 28 µM, the kcat is 0.29 ± 0.01 s⁻¹ and the kcat/Km stood at 1400 M⁻¹ s⁻¹.
Consider “nsVAO (vanillyl-alcohol oxidase from Novosphingobium sp.) (Novosphingobium sp.; T181D)”, for which the Km stood at 203 ± 22 µM, the catalytic constant (kcat) is 0.28 ± 0.01 s⁻¹ and the kcat/Km worked out at 1400 M⁻¹ s⁻¹.
